Experimental data taken from US20250375530A1, “ROR1/EGFR BI-SPECIFIC ANTIGEN BINDING MOLECULES” (ALMAC DISCOVERY LIMITED, priority 2022, published 2025).

Experiment: Analytical SEC of P3A1 loop variants (Superdex 75 increase 10/300 GL, PBS pH 7.4)
Format: physicochemical
Description: Chromatography was carried out in PBS pH 7.4.

B1: P3A1 G1 AE3: P3A1 G1 loop variant VNAR, SEQ ID NO: 77 (protein)
chain: TRVDQSPSSLSASVGDRVTITCVLTGTRYGLYSTYWYRKNPGSSDEERISISGRYSESVNKGTKSFTLTISSLQPEDSATYYCRAREARHPWLRQWYDGAGTKVEIKQACKAHHHHHHG
- % monomer by SEC: 100%
- SEC elution volume: 17.3 mL

B2: P3A1 G1 NAC6: P3A1 G1 loop variant VNAR, SEQ ID NO: 79 (protein)
chain: TRVDQSPSSLSASVGDRVTITCVLTDTRYALYSTYWYRKNPGSTDEERISIGGRYSESVNKGSKSFTLTISSLQPEDSATYYCRAREARHPWLRQWYDGAGTKVEIKQACKAHHHHHHG
- % monomer by SEC: 100%
- SEC elution volume: 17.3 mL

B3: P3A1 G1 NAG8: P3A1 G1 loop variant VNAR, SEQ ID NO: 81 (protein)
chain: TRVDQSPSSLSASVGDRVTITCVLTGTKYGLYATYWYRKNPGSPNKDRMIIGGRYSESVNNGTKSFTLTISSLQPEDSATYYCRAREARHPWLRQWYDGAGTKVEIKQACKAHHHHHHGAEFEQKLISEEDLG
- % monomer by SEC: 100%
- SEC elution volume: 14.8 mL

B4: P3A1 G1: humanised version of the ROR1 binding VNAR P3A1, SEQ ID NO: 114 (protein)
chain: TRVDQTPSSLSASVGDRVTITCVLTDTSYGLYSTYWYRKNPGSSNKEQISISGRYSESVNKGTKSFTLTISSLQPEDSATYYCRAREARHPWLRQWYDGAGTKVEIKQASGAHHHHHHGAEFEQKLISEEDL
- % monomer by SEC: 100%
- SEC elution volume: 15.47 mL
